Data published in US20240016892A1 (SHATTUCK LABS, published 2024).

Assays:
recombinant human PVR = target: T1, recombinant human PVR (human, UniProt P15151 21-343); assay: MSD sandwich 'Dual - Potency #1': capture LTβR-Fc, TIGIT-Fc-LIGHT titrated, detection PVR-Biotin (same curve as the capture row)
T1 construct: The tagged PVR of the BLI assay and the biotinylated PVR used as detector in MSD are treated as one molecule; also called rhPVR; CD155
T1 sequence (looked up): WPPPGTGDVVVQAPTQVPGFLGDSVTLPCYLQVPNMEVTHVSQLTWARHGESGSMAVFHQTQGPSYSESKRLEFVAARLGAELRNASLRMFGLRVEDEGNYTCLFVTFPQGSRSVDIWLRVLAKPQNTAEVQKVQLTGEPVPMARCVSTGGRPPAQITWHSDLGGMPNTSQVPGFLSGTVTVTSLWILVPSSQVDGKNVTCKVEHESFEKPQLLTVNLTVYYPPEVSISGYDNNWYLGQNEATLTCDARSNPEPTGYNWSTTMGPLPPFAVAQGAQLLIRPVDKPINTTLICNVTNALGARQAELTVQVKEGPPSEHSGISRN
Protocol: For the TIGIT-Fc-LIGHT chimeric protein; MSD Multi-Array plates (MSD) were pre-coated overnight with recombinant human LTβR-Fc or HVEM-Fc (Acro Biosystems) at 4° C. The plates were blocked with Diluent 100 (MSD) for at least one hour at room temperature on a shaker. After washing, analysis samples were added and then serially diluted 3-fold and loaded in duplicate wells to generate 8-10 test concentrations. The bound the TIGIT-Fc-LIGHT chimeric protein was detected with recombinant biotinylated human PVR (Acro Biosystems). Streptavidin conjugated to ruthenium (MSD), was added to bind the biotin labeled detector. MSD Gold Reading buffer (MSD) was added to the plate, and upon application of an electrical charge, an electrochemiluminescent signal was produced and detected with the MSD MESO QuickPlex SQ 120MM, Model 1300, to generate relative light units (RLU). Analogous assays were performed using mTIGIT-Fc-LIGHT and murine recombinant PVR, HVEM, and […] (Acro Biosystems).
The binding of the TIGIT-Fc-LIGHT chimeric protein to its receptors was characterized by Meso Scale Discovery (MSD) ELISA assays. […] Binding of the chimeric protein to LTβR-Fc was detected using an PVR-Biotin and using an electrochemiluminescence (ECL) readout. […] Binding of the chimeric protein to HVEM-Fc was detected using an PVR-Biotin and using an electrochemiluminescence (ECL) readout. […]

[1] = target: T2, cell surface human LTβR (A375 cells; U2OS/NIK/NFκB reporter cells) (human, UniProt P36941 31-435); assay: flow cytometry, A375 cells that express human LTβR; cell surface LTβR
T2 construct: whole, on cells; also called cell surface LTβR
T2 sequence (P36941 31-435): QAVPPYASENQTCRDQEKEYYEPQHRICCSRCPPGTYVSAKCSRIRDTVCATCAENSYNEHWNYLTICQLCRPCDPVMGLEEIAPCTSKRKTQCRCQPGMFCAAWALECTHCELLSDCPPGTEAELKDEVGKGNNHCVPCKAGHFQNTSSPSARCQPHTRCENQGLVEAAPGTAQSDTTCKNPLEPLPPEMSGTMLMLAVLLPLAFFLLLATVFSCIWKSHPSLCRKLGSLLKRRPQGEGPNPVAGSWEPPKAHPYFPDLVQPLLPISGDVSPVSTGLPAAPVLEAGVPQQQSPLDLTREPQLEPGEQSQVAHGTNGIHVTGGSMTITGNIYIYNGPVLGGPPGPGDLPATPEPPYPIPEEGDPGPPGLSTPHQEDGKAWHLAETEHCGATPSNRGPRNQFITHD

[2] = target: T3, cell surface human PVR (CHO-K1/hPVR cells) (human, UniProt P15151 21-417); assay: flow cytometry, CHO-K1 cells stably expressing human PVR; cell surface PVR
T3 construct: whole, on cells; also called cell surface PVR; CD155(PVR)
T3 sequence (looked up): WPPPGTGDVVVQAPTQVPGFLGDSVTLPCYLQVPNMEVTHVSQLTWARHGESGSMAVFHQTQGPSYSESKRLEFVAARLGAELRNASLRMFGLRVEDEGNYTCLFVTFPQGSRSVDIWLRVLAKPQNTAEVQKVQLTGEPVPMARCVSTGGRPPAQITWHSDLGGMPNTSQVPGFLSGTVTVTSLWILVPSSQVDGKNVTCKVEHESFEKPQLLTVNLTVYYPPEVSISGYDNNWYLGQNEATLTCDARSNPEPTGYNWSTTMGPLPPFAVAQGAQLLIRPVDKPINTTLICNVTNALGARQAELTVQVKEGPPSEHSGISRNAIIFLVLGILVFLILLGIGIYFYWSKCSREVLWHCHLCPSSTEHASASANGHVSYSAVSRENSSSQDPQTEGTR

B1: human TIGIT-Fc-LIGHT chimeric protein (Fc fusion)
chain: MMTGTIETTGNISAEKGGSIILQCHLSSTTAQVTQVNWEQQDQLLAICNADLGWHISPSFKDRVAPGPGLGLTLQSLTVNDTGEYFCIYHTYPDGTYTGRIFLEVLESSVAEHGARFQIPSKYGPPCPPCPAPEFLGGPSVFLFPPKPKDQLMISRTPEVTCVVVDVSQEDPEVQFNWYVDGVEVHNAKTKPREEQFNSTYRVVSVLTVLHQDWLSGKEYKCKVSSKGLPSSIEKTISNATGQPREPQVYTLPPSQEEMTKNQVSLTCLVKGFYPSDIAVEWESNGQPENNYKTTPPVLDSDGSFFLYSRLTVDKSRWQEGNVFSCSVLHEALHNHYTQKSLSLSLGKIEGRMDLQLHWRLGEMVTRLPDGPAGSWEQLIQERRSHEVNPAAHLTGANSSLTGSGGPLLWETQLGLAFLRGLSYHDGALVVTKAGYYYIYSKVQLGGVGCPLGLASTITHGLYKRTPRYPEELELLVSQQSPCGRATSSSRVWWDSSFLGGVVHLEAGEKVVVRVLDERLVRLRDGTRSYFGAFMV
notes: Said to exist as a hexamer (dimer of trimers); Glycosylated; also called hTIGIT-Fc-LIGHT; TIGIT-Fc(IgG4)-LIGHT
EC50 (recombinant human PVR): 28.3 nM | EC50 [1]: 87.1 nM | EC50 [2]: 35.4 nM
